Assays:
alpha-thrombin [1] = target: T1, alpha-thrombin (Homo sapiens, UniProt P00734;P00734 P00734:328-363,P00734:364-622); test: negative control on membrane-type surface stress sensor, used as reference for voltage difference; 240 nM thrombin in PBS
alpha-thrombin [2] = target: T1, alpha-thrombin; test: membrane-type surface stress sensor; voltage difference vs poly T control; 240 nM thrombin in PBS

| Binder | binding result (alpha-thrombin [1]) | binding result (alpha-thrombin [2]) |
| --- | --- | --- |
| TTTTTTTTTTTTTTTTTTTT (ssDNA) [poly T control] | no binding |  |
| GGTTGGTGTGGTTGGTTTTT (ssDNA) [thrombin aptamer (15-mer with T5 tail)] |  | binds |
